This is an account of results in the supplement of paper PMC9170038.

This data set concerns MS2 coat protein. The experiment in a line: apparent KD of MS2 coat protein; designed switch direction (-1 OFF switch, 1 ON switch): -1; higher = weaker reporter binding. An outline of the steps:
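Apparent KD, taken as the median over clusters for each design, was obtained by curve-fitting normalised cluster fluorescence. Designed RNA switches had been transcribed on Illumina chips by stalled E. coli RNA polymerase and titrated with SNAP-549-labelled MS2 coat protein, doubling from 0.7 or 1.5 nM to 3 µM.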

Setting [1] is: input ligand: microRNA oligo, concentration not stated.
[2] abbreviates: Eterna round: R95, input ligand: microRNA oligo, concentration not stated.

On to “CUUUUGUGAGGAUAUUAGUAGUAAAUAAAUUAAAUUACUACUGAGAAGGCACAUGAGGAUCACCCAUGUUCCUC [salish99_ex4_r3_057] (Eterna round: R96, puzzle: Exclusion 4)”, for which the “apparent KD of MS2 coat protein” value runs as follows: (input ligand: FMN 200 uM) 428 nM; under setting [1], 32.8 nM; (input ligand: none) 36.6 nM.
For “AACCUGAGGCAAAGCUUUAGGUGUACAUGAGGAUCACCCAUGUAGGAUAUGGUAGGCAAAGCUUACCAGAAGGACAUGUUAAUU [Mat - Exclusion NG 3 - Mod of JL - D38] (Eterna round: R96, puzzle: Exclusion NG 3)”, in that order: 172 nM, 61.5 nM and 67 nM.
For “AAGAGGCGGACAGGAUAUGGGAAAUUGUAAAGACCAGAAGGGUCGGCGAAAAUACAUGAGGAUCACCCAUGUGAAUCAUGACCA [AK ExNG1-7] (Eterna round: R96, puzzle: Exclusion NG 1)”, in that order: 89.1 nM, 31.6 nM and 42.5 nM.
For “CGGCAUGUAGAAGGAUAUCUGCACGUUUAGUGCAGAGAAGGUCUAACAUGAGGAUCACCCAUGUAGAUCAUUAACCGAUUAAUU [ENG1/8-A2] (Eterna round: R96, puzzle: Exclusion NG 1)”, in that order: 19.5 nM, 10.4 nM and 12.1 nM.
As to “CCACGACAUGAGGAUCACCCAUGUGAGGAUAUGGCCUGAAAAGCGUGAGCAGAAUCAAUCAGAAGGCGCGUGGG [salish99_ex1_r4_060] (Eterna round: R97, puzzle: Exclusion 1)”, the “apparent KD of MS2 coat protein” value (input ligand: FMN 200 uM) was determined as 73.2 nM and the “apparent KD of MS2 coat protein” value (input ligand: none) is 45.7 nM.
For “CUUCGUUGUAAGGAUAUCCAGACUCUUCCUGUCGGAGAAGGUACAACAUGAGGAUCACCCAUGUUGCUACAUGG [Zaaqu] (puzzle: Exclusion 6)”, under setting [2], the “apparent KD of MS2 coat protein” value was determined as 21.6 nM.
On the same count and under the same terms, the value for “GUGUACAGAGGAUAUACACGAGGAGUUACGAAAGUAACUUCACAUGAGGAUCACCCAUGUAGAAGGCUGUACAC [Dot plot directed v6] (puzzle: Exclusion 2)” was 25.4 nM.
With “AACAGUACAGGAUAUACAUGAGGAUCACCCAUGUGAGAAUUAUGUGGCGUACCACAAAGUAGAAGGGUACUGGA [JL Maslow Revisted mod 3] (Eterna round: R96, puzzle: Exclusion 3)”, the “apparent KD of MS2 coat protein” value is, setting by setting: (input ligand: FMN 200 uM) 497 nM; under setting [1], 61.3 nM; (input ligand: none) 69.6 nM.
For “UGAGUGCUGCGAGGAUAUACAUGAGGAUCACCCAUGUUUUCCUGUGAGGCAUAGCCUCACAGGAUGUAGAAGGCGCAGUACUCU [Mat - Exclusion NG 2 - Mod of JL - D28] (Eterna round: R96, puzzle: Exclusion NG 2)”, in that order: 10.6 nM, 8.03 nM and 13.8 nM.
Take “UGUUGUUACGCAGGAUAUGAGGAUCACCCAUAUCAGGAUAUCGAAAGAGAACUUCUGAGGAUCACCCAGAAGGGCGGGUUAACA [pwkr exNG2 2xF5 2xFMN.38] (Eterna round: R96, puzzle: Exclusion NG 2)”: the “apparent KD of MS2 coat protein” value runs as follows: (input ligand: FMN 200 uM) 16.9 nM; under setting [1], 13.6 nM; (input ligand: none) 21.2 nM.
“CUAGUAUAUCAGGAUAUGAUUUUAUAUAUUGGAUCAGAAGGGAUAACAUGAGGAUCACCCAUGUUAAGGAGUGA [JR_Ex6_Sub040] (Eterna round: R97, puzzle: Exclusion 6)”: the “apparent KD of MS2 coat protein” value by setting is: (input ligand: FMN 200 uM) 155 nM; (input ligand: none) 45 nM.
As to “AGCUGUGGCCAAGGAUAUCCAGCCUUAAAUACCGACGUAUAGUCGGACAUGAGGAUCACCCAUGUGGAGAAGGUGGUCUCAGCA [Eli eng2 - 040] (Eterna round: R96, puzzle: Exclusion NG 2)”, the “apparent KD of MS2 coat protein” value (input ligand: FMN 200 uM) was found to be 109 nM, the “apparent KD of MS2 coat protein” value under setting [1] was 45 nM and the “apparent KD of MS2 coat protein” value (input ligand: none) amounted to 56.8 nM.
“GCGACUGGAGGAUAUACAUGAGGAUCACCCAUGUGAUCUAAAAGGGUCUUAUGCCGGUGUAGAAGGCCGAGCAG [Eternabot (L2) Solution 84] (Eterna round: R97, puzzle: Exclusion 3)”: the “apparent KD of MS2 coat protein” value by setting is: (input ligand: FMN 200 uM) 26.7 nM; (input ligand: none) 27.3 nM.
As for “AGUCUGCGAGGAUAUACAUGAGGAUCACCCAUGUGCGAAGAACUAGUGAGGUCGAUUGGUAGAAGGCGCGGACA [Mat - Exclusion 3 - Mod of JL D88] (puzzle: Exclusion 3)”, the “apparent KD of MS2 coat protein” value under setting [2] was determined as 241 nM.
With “UCGUUGUAAAUCAGGUGAUGUCUGUUAGGAUGGACUUUGACAUGAGGAUCACCCAUGUUGCUUUUUGCCCGUCUUAA [JR_SV3TOV2_Sub045] (puzzle: Sensor v3, turn-off variant 2)”, the “apparent KD of MS2 coat protein” value by setting is: (Eterna round: R95, input ligand: FMN 200 uM) 33.6 nM; under setting [2], 68.5 nM; (Eterna round: R95, input ligand: none) 38.4 nM.
“AUAAUGUAAGGAUAUCAGUCGUUAAUAAUUUAAUAAUCGACUGAGAAGGUACAUGAGGAUCACCCAUGUGAUCA [E4/8-B1] (Eterna round: R97, puzzle: Exclusion 4)”: the “apparent KD of MS2 coat protein” value by setting is: (input ligand: FMN 200 uM) 350 nM; (input ligand: none) 930 nM.
“AAAGAUGUAGGAUAUGUCCAUCCAGACAUGAGGAUCACCCAUGUGAGGGCCGGGUGUUGGGCAGAAGGACACCGGU [Eternabot (Original) Solution 19] (Eterna round: R97, puzzle: Exclusion 5)”: the “apparent KD of MS2 coat protein” value was 27.2 nM (input ligand: FMN 200 uM) and 31.4 nM (input ligand: none).
Regarding “GUGAAGUAAGGAUAUAGUGGAAAAGAUAAGGUAUGAGAGUUCUAGAAGGUACAUGAGGAUCACCCAUGUUAGGG [JR_Exclu4_Sub085] (Eterna round: R96, puzzle: Exclusion 4)”, the “apparent KD of MS2 coat protein” value (input ligand: FMN 200 uM) worked out at 324 nM, the “apparent KD of MS2 coat protein” value under setting [1] was 212 nM and the “apparent KD of MS2 coat protein” value (input ligand: none) was 360 nM.
Take “GAUCAUGCAGGAUAUACAGUUUCCAUGAUAACAUGGUCCUCACAUGAGGAUCACCCAUGUAGAAGGGCAUGAUC [Omei Ex2 A29] (Eterna round: R97, puzzle: Exclusion 2)”: the “apparent KD of MS2 coat protein” value stood at 258 nM (input ligand: FMN 200 uM) and 1080 nM (input ligand: none).
In the case of “AUCCGUUGUAUAGGAUAUAAGUGUAAACUGUACUUAGAAGGAUACAUGAGGAUCACCCAUGUUGUAAUAGAUGAGCAUAGAGCA [Eternabot solution 6] (Eterna round: R96, puzzle: Exclusion NG 1)”, the “apparent KD of MS2 coat protein” value by setting is: (input ligand: FMN 200 uM) 52.2 nM; under setting [1], 24.1 nM; (input ligand: none) 30.2 nM.
Take “UUGUUAUAUGAAGGAUAUACUUAACAUGAGGAUCACCCAUGUGGUGUUGUGAGUGAGUGAGUUUAGUAGAAGGUCAAUGAUUUU [JMF's solution 73] (Eterna round: R96, puzzle: Exclusion NG 2)”: the “apparent KD of MS2 coat protein” value reads like this: (input ligand: FMN 200 uM) 513 nM; under setting [1], 309 nM; (input ligand: none) 344 nM.
For “UUUUUAUAUGAAGGAUAUACUUAACAUGAGGAUCACCCAUGUGGUGUUGUGAGUGAGUGAGUUUAGUAGAAGGUCAAUUAUCUU [JMF's solution 14] (Eterna round: R96, puzzle: Exclusion NG 2)”, in that order: 699 nM, 309 nM and 373 nM.
